Where two headings read alike, the source gives them in different places.
Tests used:
[1] = target: T1, recombinant human TROP2 extracellular domain (aa 1-274) comprising His tag (human, UniProt P09758 27-274); assay: ELISA on coated recombinant human TROP2, 0.00256-200 nM, RLU
T1 construct: Used here for all assays on recombinant human TROP2 (ELISA, immunoblot, SPR, crystal), although only some of them name the catalogue number; also called human recombinant TROP2; recombinant human TROP2 protein; not shown: His tag
T1 sequence: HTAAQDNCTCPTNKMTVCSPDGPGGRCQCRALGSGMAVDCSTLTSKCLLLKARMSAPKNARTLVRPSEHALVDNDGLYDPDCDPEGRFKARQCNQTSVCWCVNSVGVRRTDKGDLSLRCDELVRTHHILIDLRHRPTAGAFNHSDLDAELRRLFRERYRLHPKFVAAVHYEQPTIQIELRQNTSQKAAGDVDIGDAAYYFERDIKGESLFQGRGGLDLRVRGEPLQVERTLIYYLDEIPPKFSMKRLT
Procedure: (§1) Human TROP2 recombinant proteins were coated on 96-well ELISA plates at the concentration of 1 μg/mL. Plates were covered with adhesive plate cover and stored at 4° C. overnight. The next day, plates were washed 3× with washing buffer (PBS with 0.1% Tween™ 20). Plates were blocked with 2% fat-free BSA in washing buffer for 1 hour at 37° C. During the incubation time, the TROP2 reference antibodies, as well as the humanized variants, were diluted in the blocking buffer to the indicated concentrations. […] After blocking, the blocking buffer was removed from the wells and 100 μL of anti-TROP2 sdAbs dilutions were transferred to the corresponding wells. Plates were covered with adhesive plates cover and incubated at 37° C. for 1 hour. During the primary antibody incubation, the secondary antibody (goat anti-human IgG, HRP conjugated) was diluted 1 in 5000 with the blocking buffer. Plates were washed 3× with blocking buffer, followed by secondary antibody incubation for another 1 hour at 37° C. After the secondary antibody incubation, plates were washed 3× with washing buffer and added with 100 μL of ELISA chemiluminescent substrate (Thermofisher). The luminescence signal was detected by SpectraMax i3x at […].

[2] = target: T1, recombinant human TROP2 extracellular …; assay: ELISA, coated rh TROP2
Procedure: as §1

[3] = target: T1, recombinant human TROP2 extracellular …; assay: ELISA, coated rh TROP2; remark: listed apart in the source
Procedure: as §1

[4] = target: T1, recombinant human TROP2 extracellular …; assay: ELISA, coated rh TROP2, normalized to KD005

Binder | binding result [1] | EC50 [2] [nM] | EC50 [3] [nM] | EC50% to KD005 [3] | EC50 relative to KD005 [4]
KD020 (antibody, V domains shown, KD002 humanized variant) VH: EVQLVESGGGLVQPGGSLRLSCAASGFPFSSADMHWVRQAPGKGLVWVSRINADGSKTSYADTVKGRFTISRDNAKNTLYLQMNSLRAEDTAVYYCARAKLTDTHYVEDYWGQGTLVTVSS | binds |  |  |  | 
KD038 (antibody, V domains shown, KD002 humanized variant) VH: QVQLQESGGGLVQPGGSLRLSCAASGFPFSSADMSWVRQAPGKGLEWVSYINADGSKTYYADTVKGRFTISRDNSKNTLYLQMNSLRAEDTALYRCARAKLTDTHYVEDYWGQGTMVTVSS |  | 0.26 |  |  | 
KD040 (antibody, V domains shown, KD002 humanized variant) VH: QVQLQESGGGLVQPGGSLRLSCAASGFPFSSADMSWVRQAPGKQREWVSYINADGSKTYYADTVKGRFTISRDNSKNTLYLQMNSLRAEDTAVYRCARAKLTDTHYVEDYWGQGTMVTVSS |  | 0.05 |  |  | 
KD039 (antibody, V domains shown, KD002 humanized variant) VH: QVQLQESGGGMVQPGGSLRLSCAASGFPFSSADMSWVRQAPGKGLEWVSYINADGSKTYYADTVKGRFTISRDNSKNTLYLQMNSLRAEDTAVYRCARAKLTDTHYVEDYWGQGTQVTVSS |  | 0.15 |  |  | 
KD037 (antibody, V domains shown, KD002 humanized variant) VH: QVQLQESGGGLVQPGGSLRLSCAASGFPFSSADMSWVRQAPGKGLEWVSYINADGSKTYYADTVKGRFTISRDNSKNTLYLQMNNLRAEDTAVYRCARAKLTDTHYVEDYWGQGTMVTVSS |  | 0.18 |  |  | 
KD036 (antibody, V domains shown, KD002 humanized variant) VH: QVQLQESGGGLVQPGGSLRLSCAASGFPFSSADMSWVRQAPGKGLEWVSYINADGSKTYYPDTVKGRFTISRDNSKNTLYLQMNSLRAEDTAVYRCARAKLTDTHYVEDYWGQGTMVTVSS |  | 0.13 |  |  | 
KD041 (antibody, V domains shown, KD002 humanized variant) VH: QVQLQESGGGLVQPGGSLRLSCAASGFPFSSADMSWVRQAPGKGLEWVSYINAEGSKTYYADTVKGRFTISRDNSKNTLYLQMNSLRAEDTAVYRCARAKLTDTHYVEDYWGQGTMVTVSS |  | 0.15 |  |  | 
KD035 (antibody, V domains shown, KD002 humanized variant) VH: QVQLQESGGGLVQPGGSLRLSCAASGFPFSSADMSWVRQAPGKGPEWVSYINADGSKTYYADTVKGRFTISRDNSKNTLYLQMNSLRAEDTAVYRCARAKLTDTHYVEDYWGQGTMVTVSS |  | 0.12 |  |  | 
KD042 (antibody, V domains shown, KD002 humanized variant) VH: QVQLQESGGGLVQPGGSLRLSCAASGFPFSSADMSWVRQAPGKGLEWVSYINANGSKTYYADTVKGRFTISRDNSKNTLYLQMNSLRAEDTAVYRCARAKLTDTHYVEDYWGQGTMVTVSS |  | 0.07 |  |  | 
KD054 (antibody, V domains shown, KD005 humanized variant) VH: QVQLQESGGGLIQPGGSLRLSCAASGFTFSGSDMSWVRQAPGKGLEWVSYITSGGTTYYADTVKGRFTISRDNSKNTLYLQMNSLRAEDTAVYRCAKSRLTDSHYVEDAWGQGTLVTVSS |  |  | 0.07 | 0.875 ratio to KD005 | 0.93 ratio to KD005
KD050 (antibody, V domains shown, KD005 humanized variant) VH: QVQLQESGGGLVQPGGSLRLSCAASGFTFSGSDMSWVRQAPGKGPEWVSYITSGGTTYYPDTVKGRFTISRDNSKNTLYLQMNSLKPDDTAVYRCAKSRLTDSHYVEDAWGQGTQVTVSS |  |  | 0.1 | 1.25 ratio to KD005 | 1.12 ratio to KD005
KD044 (antibody, V domains shown, KD005 humanized variant) VH: EVQLLESGGGLVQPGGSLRLSCAASGFTFSGSDMSWVRQAPGKGLEWVSYITSGGTTYYADTVKGRFTISRDNSKNTLYLQMNSLRAEDTAVYYCAKSRLTDSHYVEDAWGQGTLVTVSS |  |  | 0.08 | 1 ratio to KD005 | 0.9 ratio to KD005
KD055 (antibody, V domains shown, KD005 humanized variant) VH: EVQLQESGGGLIQPGGSLRLSCAASGFTFSGSDMSWVRQAPGKGLEWVSYITSGGTTYYADTVKGRFTISRDNSKNTLYLQMNSLRAEDTAVYRCAKSRLTDSHYVEDAWGQGTLVTVSS |  |  | 0.08 | 1 ratio to KD005 | 1.12 ratio to KD005
KD057 (antibody, V domains shown, KD005 humanized variant) VH: QVQLQESGGGLIQPGGSLRLSCAASGFTFSGSDMSWVRQAPGKGLEWVSVITSGGTTYYADTVKGRFTISRDNSKNTLYLQMNSLRAEDTAVYRCAKSRLTDSHYVEDAWGQGTLVTVSS |  |  | 0.09 | 1.12 ratio to KD005 | 1.15 ratio to KD005
KD043 (antibody, V domains shown, KD005 humanized variant) VH: EVQLLESGGGLVQPGGSLRLSCAASGFTFSGSDMSWVRQAPGKGLEWVSAITSGGTTYYADTVKGRFTISRDNSKNTLYLQMNSLRAEDTAVYYCAKSRLTDSHYVEDAWGQGTLVTVSS |  |  | 0.09 | 1.12 ratio to KD005 | 1.01 ratio to KD005
KD046 (antibody, V domains shown, KD005 humanized variant) VH: QVQLLESGGGLVQPGGSLRLSCAASGFTFSGSDMSWVRQAPGKGPEWVSYITSGGTTYYADTVKGRFTISRDNSKNTLYLQMNSLRAEDTAVYYCAKSRLTDSHYVEDAWGQGTLVTVSS |  |  | 0.08 | 1 ratio to KD005 | 0.9 ratio to KD005
KD045 (antibody, V domains shown, KD005 humanized variant) VH: EVQLLESGGGLVQPGGSLRLSCAASGFTFSGSDMSWVRQAPGKGLEWVSYITSGGTTYYADTVKGRFTISRDNSKNTLYLQMNSLRAEDTAVYRCAKSRLTDSHYVEDAWGQGTLVTVSS |  |  | 0.09 | 1.12 ratio to KD005 | 1.01 ratio to KD005
KD056 (antibody, V domains shown, KD005 humanized variant) VH: QVQLVESGGGLIQPGGSLRLSCAASGFTFSGSDMSWVRQAPGKGLEWVSYITSGGTTYYADTVKGRFTISRDNSKNTLYLQMNSLRAEDTAVYRCAKSRLTDSHYVEDAWGQGTLVTVSS |  |  | 0.09 | 1.12 ratio to KD005 | 1.21 ratio to KD005
KD052 (antibody, V domains shown, KD005 humanized variant) VH: EVQLVESGGGLIQPGGSLRLSCAASGFTFSGSDMSWVRQAPGKGLEWVSVITSGGTTYYADTVKGRFTISRDNSKNTLYLQMNSLRAEDTAVYYCAKSRLTDSHYVEDAWGQGTLVTVSS |  |  | 0.07 | 0.875 ratio to KD005 | 0.93 ratio to KD005
